# Assay results: patent publication US10766952B2, “Methods for reducing migraine frequency in a subject in need thereof” (Beth Israel Deaconess Medical Center, Inc., priority 2017, dated 2020)
# Ends that are not written are not given here.
# Tested on: CGRP activity (skin blood flow after saphenous nerve stimulation)
# Experiment: Skin vasodilatation induced by stimulation of rat saphenous nerve
# Type: in vivo
# Settings: 400 nmol/kg i.v., 3-5 minutes before stimulation; FIG. 2A, 2B
# Experimental: To test antagonist activity of anti-CGRP antibodies, effect of the antibodies on skin vasodilatation by stimulation of rat saphenous nerve was tested using a rat model described previously. Escott et al., Br. J. Pharmacol. 110:772-776, 1993. In this rat model, electrical stimulation of saphenous nerve induces release of CGRP from nerve endings, resulting in an increase in skin blood flow. Blood flow in the foot skin of male Sprague Dawley rats (170-300 g, from Charles River Hollister) was measured after saphenous nerve stimulation. Rats were maintained under anesthesia with 2% isoflurane. Bretylium tosylate (30 mg/kg, administered i.v.) was given at the beginning of the experiment to minimize vasoconstriction due to the concomitant stimulation of sympathetic fibers of the saphenous nerve. Body temperature was maintained at 37° C. by the use of a rectal probe thermostatically connected to a temperature controlled heating pad. […]
# For experiments shown in FIGS. […] Skin blood flow, measured as blood cell flux, was monitored with a laser Doppler flow meter. […]
# For experiments shown in FIGS. 4A and 4B, saphenous nerve was exposed surgically before antibody administration. […] Skin blood flow, measured as blood cell flux, was monitored with a laser Doppler flow meter. […]
row,Molecule,blood flow increase stimulated by electronic pulses on saphenous nerve
1,CGRP 8-37: positive control compound (vasodilatation antagonist),inhibited

# Biological target: T1, binding of G1 Fab to human α-CGRP on the chip (Homo sapiens)
# T1 construct: made in house; host or cells: E. coli (Fab); chip peptide purchased
# Experiment: Epitope mapping of antibody G1 by peptide competition using Biacore
# Settings: 10 μM peptide in 50 nM G1 Fab; FIG. 6
# Excerpt: N-biotinylated human α-CGRP was captured on SA sensor chip. […] Y axis represents percentage of binding blocked by the presence of the competing peptide compared with the binding in the absence of the competing peptide.
# Human α-CGRP was purchased as an N-biotinylated version to enable its high-affinity capture via SA sensor chips. […] All these peptides are amidated at the C-terminus.
# T1 sequence (P01859 with tags, fused parts or gaps, other chains not shown): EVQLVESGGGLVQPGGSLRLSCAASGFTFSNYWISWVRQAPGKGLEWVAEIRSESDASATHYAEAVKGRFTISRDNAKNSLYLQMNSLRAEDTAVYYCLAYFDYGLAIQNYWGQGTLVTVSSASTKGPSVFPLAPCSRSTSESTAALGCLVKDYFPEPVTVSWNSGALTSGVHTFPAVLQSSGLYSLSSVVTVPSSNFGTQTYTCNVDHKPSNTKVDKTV
row,Molecule,percentage of binding of G1 Fab to human α-CGRP blocked by competing peptide
1,"1-13: human α-CGRP fragment, SEQ ID NO: 40, ACDTATCVTHRLA (ACDTATCVTHRLA-OH; cysteine pairing not given here)",did not compete
2,"1-19: human α-CGRP fragment, SEQ ID NO: 39, ACDTATCVTHRLAGLLSRS (ACDTATCVTHRLAGLLSRS-OH; cysteine pairing not given here)",did not compete
3,"1-36: human α-CGRP fragment, SEQ ID NO: 38, ACDTATCVTHRLAGLLSRSGGVVKNNFVPTNVGSKA (ACDTATCVTHRLAGLLSRSGGVVKNNFVPTNVGSKA-OH; cysteine pairing not given here)",about 40%
4,"19-36: human α-CGRP fragment, SEQ ID NO: 37, SGGVVKNNFVPTNVGSKA (SGGVVKNNFVPTNVGSKA-OH)",did not compete
5,"adrenomedullin: SEQ ID NO: 47, YRQSMNNFQGLRSFGCRFGTCTVQKLAHQIYQFTDKDKDNVAPRSKISPQGY",did not compete
6,"calcitonin: SEQ ID NO: 45, CGNLSTCMLGTYTQDFNKFHTFPQTAIGVGAP",did not compete
7,"human amylin: SEQ ID NO: 46, KCNTATCATQRLANFLVHSSNNFGAILSSTNVGSNTY",did not compete

# Tested on: naïve central trigeminovascular neurons
# Experiment: not given
# Settings: Storer et al., 2004; cited from earlier work
row,Molecule,responses to electrical stimulation of the superior sagittal sinus and microiontophoretic administration of L-glutamate
1,NCCCC[C@H](NC(=O)[C@@H](Cc1cc(Br)c(O)c(Br)c1)NC(=O)N1CCC(N2Cc3ccccc3NC2=O)CC1)C(=O)N1CCN(c2ccncc2)CC1 [BIBN4096BS],inhibits
